Earlier results in publication PMC7488417.

Target: cJun LZ (Homo sapiens) (UniProt P05412)
Experiment: ITC

Sequence of cJun LZ (Homo sapiens) (P05412 277-308): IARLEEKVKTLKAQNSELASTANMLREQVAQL
Sequence of cFos LZ (P01100 162-193): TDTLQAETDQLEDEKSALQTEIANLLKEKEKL

Kd: 26.6 µM
Substance: cFos LZ (from UniProt P01100)
